Data reported in US8575097B2, “Exendin variant and conjugate thereof” (Pegbio Co., Ltd., priority 2009, dated 2013).

Test system: guinea pigs
Assay: Systematically allergic reaction in guinea pigs (Example 23)
Assay type: in vivo, guinea pig
Settings: albumin 240 mg/kg via toe vein
Excerpt: 44 male healthy guinea pigs were provided, and the body weight of each guinea pig was about 300 g.

B1: chicken ovalbumin (protein, UniProt P01012 2-386, looked up)
Ovalbumin: GSIGAASMEFCFDVFKELKVHHANENIFYCPIAIMSALAMVYLGAKDSTRTQINKVVRFDKLPGFGDSIEAQCGTSVNVHSSLRDILNQITKPNDVYSFSLASRLYAEERYPILPEYLQCVKELYRGGLEPINFQTAADQARELINSWVESQTNGIIRNVLQPSSVDSQTAMVLVNAIVFKGLWEKAFKDEDTQAMPFRVTEQESKPVQMMYQIGLFRVASMASEKMKILELPFASGTMSMLVLLPDEVSGLEQLESIINFEKLTEWTSSNVMEERKIKVYLPRMKMEEKYNLTSVLMAMGITDVFSSSANLSGISSAESLKISQAVHAAHAEINEAGREVVGSAEAGVDAASVSEEFRADHPFLFCIKHIATNAVLFFGRCVSP
notes: chicken ovalbumin, albumin group in the guinea pig allergy test
time to death after stimulation: < 2 min
